US20190276496A1 (FUNDACI N PARA LA INVESTIGACI N M DICA APLICADA, published 2019)
Where no end group is shown, it is not given here. [ ]: non-standard residue; d: D form.

How the values were obtained:
[1] = target: T1, Foxp3 in murine CD25+ Treg cells (mouse, UniProt Q99JB6 1-417); experiment: cell-based or functional assay
T1 sequence (looked up): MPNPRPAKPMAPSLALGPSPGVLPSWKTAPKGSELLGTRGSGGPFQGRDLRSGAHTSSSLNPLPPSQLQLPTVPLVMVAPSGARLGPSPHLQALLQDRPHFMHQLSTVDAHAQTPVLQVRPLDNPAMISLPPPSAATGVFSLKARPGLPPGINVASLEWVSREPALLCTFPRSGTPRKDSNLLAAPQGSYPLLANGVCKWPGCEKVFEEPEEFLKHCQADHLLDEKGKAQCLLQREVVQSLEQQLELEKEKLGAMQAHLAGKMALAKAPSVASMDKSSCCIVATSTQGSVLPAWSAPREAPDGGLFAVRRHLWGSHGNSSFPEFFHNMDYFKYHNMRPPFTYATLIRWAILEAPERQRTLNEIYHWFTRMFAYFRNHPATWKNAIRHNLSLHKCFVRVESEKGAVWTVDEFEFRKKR

[2] = target: human FOXP3 tagged with 6 histidines at the C terminus (human) (UniProt Q9BZS1); experiment: AlphaScreen competition, His-tagged FOXP3 (400 nM) / GST-tagged FOXP3 (40 nM, competitor); peptide at 100 µM
[3] = target: human FOXP3 tagged with 6 histidines at the C terminus (human) (UniProt Q9BZS1); experiment: SPR (ProteOn XPR36), FOXP3-6His immobilized on GLM chip, peptide 1-20 µM injected; ratio to p60 (SEQ ID NO: 1)
[4] = target: GST-FOXP3 (GST fused to the isoform A from human FOXP3 gene) (human) [GST: P08515]; experiment: AlphaScreen competition, GST-FOXP3 (100 nM) / His-Runx1 (46 nM, competitor); peptide at 100 µM
[5] = target: GST-FOXP3 (GST fused to the isoform A from human FOXP3 gene) (human) [GST: P08515]; experiment: AlphaScreen competition, GST-FOXP3 (100 nM) / His-Runx1 (46 nM, competitor); peptide at 2.5 µM
[6] = target: T1, Foxp3 in murine CD25+ Treg cells; experiment: cell-based or functional assay; remark: listed apart in the source
[7] = target: human FOXP3 tagged with 6 histidines at the C terminus (human) (UniProt Q9BZS1); experiment: AlphaScreen competition, His-tagged FOXP3 (400 nM) / GST-tagged FOXP3 (40 nM, competitor); peptide at 20 µM

Sequence of GST-FOXP3 (GST fused to the isoform A from human FOXP3 gene) (human) [GST: P08515] (P08515 1-218, tags or fused parts left off): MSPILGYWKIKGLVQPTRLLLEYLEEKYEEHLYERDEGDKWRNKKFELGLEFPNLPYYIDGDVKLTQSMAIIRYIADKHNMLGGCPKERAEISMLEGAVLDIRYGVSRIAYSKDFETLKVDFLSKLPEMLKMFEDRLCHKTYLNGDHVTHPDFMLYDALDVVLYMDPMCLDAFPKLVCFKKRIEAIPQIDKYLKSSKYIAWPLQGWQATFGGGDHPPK
Sequence of human FOXP3 tagged with 6 histidines at the C terminus (human) (Q9BZS1 other isoform, or with tags, fused parts or gaps): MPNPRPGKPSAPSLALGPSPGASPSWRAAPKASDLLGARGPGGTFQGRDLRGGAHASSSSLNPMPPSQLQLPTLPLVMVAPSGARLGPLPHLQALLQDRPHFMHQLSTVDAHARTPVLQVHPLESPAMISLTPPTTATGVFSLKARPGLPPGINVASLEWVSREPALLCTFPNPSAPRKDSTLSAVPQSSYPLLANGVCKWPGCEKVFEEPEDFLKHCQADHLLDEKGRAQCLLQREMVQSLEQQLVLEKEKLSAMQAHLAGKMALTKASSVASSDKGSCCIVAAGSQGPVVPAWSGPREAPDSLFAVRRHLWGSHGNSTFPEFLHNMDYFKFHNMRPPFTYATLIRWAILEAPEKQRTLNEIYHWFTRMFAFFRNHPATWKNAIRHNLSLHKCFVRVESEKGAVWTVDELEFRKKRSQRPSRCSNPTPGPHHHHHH

## RAFQSFRKMWPFFAM [peptide of SEQ ID NO: 5]
[1]
  Treg inhibition-% inhibition (100 µM): 347%
[2]
  Dimerization inhibition % inhibition: 74.3%
[3]
  Ratio binding Peptide/p60 (fold change): 4.1 fold change
[4]
  Foxp3-Runx1 Inhibition % inhibition: 76%

## RAFQSFRKMWPFFA[dM] [peptide of SEQ ID NO: 47]
[5]
  Foxp3-Runx1 Inhibition % inhibition: 75%
[6]
  IC50 (µM) of inhibition of Treg activity, in vitro Treg suppression assay (murine Tconv + Treg, anti-CD3, [3H]-thymidine): 35 µM
[3]
  Ratio binding Peptide/p60 (fold change): 1.7 fold change

## RDAQSFRKMWPFFAM [peptide of SEQ ID NO: 15]
[3]
  Ratio binding Peptide/p60 (fold change): 1.1 fold change
[4]
  Foxp3-Runx1 Inhibition % inhibition: 55.6%

B1: peptide of SEQ ID NO: 46 (peptide)
peptide: H-[dR]AFQSFRKMWPFFAM-OH
SMILES: CSCC[C@H](NC(=O)[C@H](C)NC(=O)[C@H](Cc1ccccc1)NC(=O)[C@H](Cc1ccccc1)NC(=O)[C@@H]1CCCN1C(=O)[C@H](Cc1c[nH]c2ccccc12)NC(=O)[C@H](CCSC)NC(=O)[C@H](CCCCN)NC(=O)[C@H](CCCNC(=N)N)NC(=O)[C@H](Cc1ccccc1)NC(=O)[C@H](CO)NC(=O)[C@H](CCC(N)=O)NC(=O)[C@H](Cc1ccccc1)NC(=O)[C@H](C)NC(=O)[C@H](N)CCCNC(=N)N)C(=O)O
[5]
  Foxp3-Runx1 Inhibition % inhibition: 95%
[6]
  IC50 (µM) of inhibition of Treg activity, in vitro Treg suppression assay (murine Tconv + Treg, anti-CD3, [3H]-thymidine): 12.5 µM
[7]
  Dimerization inhibition % inhibition: 90%
[3]
  Ratio binding Peptide/p60 (fold change): 2.7 fold change

## Ac-GRAFQAFRKMWAFFAM-NH2 [peptide of SEQ ID NO: 45]
[6]
  IC50 (µM) of inhibition of Treg activity, in vitro Treg suppression assay (murine Tconv + Treg, anti-CD3, [3H]-thymidine): 3 µM
[3]
  Ratio binding Peptide/p60 (fold change): 8 fold change

B2: cyclic peptide SEQ ID NO: 50 (peptide)
peptide: RAFQAFRKMWPFFAM
modifications: head-to-tail cyclic: linker L is C(=O) between the N-terminal amino group of residue 1 and the alpha carbon of residue 15
[5]
  Foxp3-Runx1 Inhibition % inhibition: 60%
[6]
  IC50 (µM) of inhibition of Treg activity, in vitro Treg suppression assay (murine Tconv + Treg, anti-CD3, [3H]-thymidine): 0.8 µM
[3]
  Ratio binding Peptide/p60 (fold change): 21.4 fold change

B3: peptide of SEQ ID NO: 14 (peptide)
peptide: Ac-GR[dA]FQSFRKMWPFFAM-NH2
SMILES: CSCC[C@H](NC(=O)[C@H](C)NC(=O)[C@H](Cc1ccccc1)NC(=O)[C@H](Cc1ccccc1)NC(=O)[C@@H]1CCCN1C(=O)[C@H](Cc1c[nH]c2ccccc12)NC(=O)[C@H](CCSC)NC(=O)[C@H](CCCCN)NC(=O)[C@H](CCCNC(=N)N)NC(=O)[C@H](Cc1ccccc1)NC(=O)[C@H](CO)NC(=O)[C@H](CCC(N)=O)NC(=O)[C@H](Cc1ccccc1)NC(=O)[C@@H](C)NC(=O)[C@H](CCCNC(=N)N)NC(=O)CNC(C)=O)C(N)=O
[5]
  Foxp3-Runx1 Inhibition % inhibition: 80%
[6]
  IC50 (µM) of inhibition of Treg activity, in vitro Treg suppression assay (murine Tconv + Treg, anti-CD3, [3H]-thymidine): 12.5 µM
[7]
  Dimerization inhibition % inhibition: 90%
[3]
  Ratio binding Peptide/p60 (fold change): 3.6 fold change

## [dR]AFQSFRKMWPFFA[dM] [peptide of SEQ ID NO: 48]
[5]
  Foxp3-Runx1 Inhibition % inhibition: 70%
[6]
  IC50 (µM) of inhibition of Treg activity, in vitro Treg suppression assay (murine Tconv + Treg, anti-CD3, [3H]-thymidine): 20 µM
[3]
  Ratio binding Peptide/p60 (fold change): 2.5 fold change

## RDFQSFRKMWAFFAM [peptide of SEQ ID NO: 30]
[1]
  Treg inhibition-% inhibition (100 µM): 170%
[2]
  Dimerization inhibition % inhibition: 81.3%
[3]
  Ratio binding Peptide/p60 (fold change): 1.1 fold change
[4]
  Foxp3-Runx1 Inhibition % inhibition: 73.9%

## RDFQSFRKMWPFFAM [p60 (peptide of SEQ ID NO: 1)]
[6]
  IC50 (µM) of inhibition of Treg activity, in vitro Treg suppression assay (murine Tconv + Treg, anti-CD3, [3H]-thymidine): 38.3 µM
[1]
  Treg inhibition-% inhibition (100 µM): 116%
[2]
  Dimerization inhibition % inhibition: 59.7%
[3]
  Ratio binding Peptide/p60 (fold change): 1 fold change
[4]
  Foxp3-Runx1 Inhibition % inhibition: 54.5%

## RDFQAFRKMWPFFAM [peptide of SEQ ID NO: 19]
[1]
  Treg inhibition-% inhibition (100 µM): 160%
[2]
  Dimerization inhibition % inhibition: 89%
[3]
  Ratio binding Peptide/p60 (fold change): 1.1 fold change
[4]
  Foxp3-Runx1 Inhibition % inhibition: 74.7%

B4: peptide of SEQ ID NO: 4 (peptide)
peptide: Ac-GR[dD]FQSFRKMWPFFAM-NH2
SMILES: CSCC[C@H](NC(=O)[C@H](C)NC(=O)[C@H](Cc1ccccc1)NC(=O)[C@H](Cc1ccccc1)NC(=O)[C@@H]1CCCN1C(=O)[C@H](Cc1c[nH]c2ccccc12)NC(=O)[C@H](CCSC)NC(=O)[C@H](CCCCN)NC(=O)[C@H](CCCNC(=N)N)NC(=O)[C@H](Cc1ccccc1)NC(=O)[C@H](CO)NC(=O)[C@H](CCC(N)=O)NC(=O)[C@H](Cc1ccccc1)NC(=O)[C@@H](CC(=O)O)NC(=O)[C@H](CCCNC(=N)N)NC(=O)CNC(C)=O)C(N)=O
[6]
  IC50 (µM) of inhibition of Treg activity, in vitro Treg suppression assay (murine Tconv + Treg, anti-CD3, [3H]-thymidine): 13.4 µM
[3]
  Ratio binding Peptide/p60 (fold change): 4.2 fold change

## Ac-GRDFQSFRKMWPFFAM-NH2 [peptide of SEQ ID NO: 2]
[7]
  Dimerization inhibition % inhibition: 80%
[3]
  Ratio binding Peptide/p60 (fold change): 2.4 fold change
